Measured values from the supplement of paper PMC9942255.

Test system: Bacillus subtilis DB104 (SP-AmyQ fusion secretion)
Experiment: AmyQ secretion efficiency, weighted average sort bin (1 = best secretion, 10 = worst) (bin number (weighted average, 1-10)); higher = lower secretion efficiency
Outline: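 The secretion score was taken as the read-frequency-weighted mean bin number, normalised to beads per bin, with low-abundance sequences excluded. Bins came from large-particle flow cytometry sorting of occupied alginate beads (~65 nL, about 0.3 cells each, with fluorescein-starch) into 10 equally populated groups by green/red fluorescence ratio after about 13 h at room temperature and nile red staining. The cells were a B. subtilis DB104 library with mature AmyQ fused to designed signal peptides, integrated at amyE, and each bin's amplicons were Illumina-sequenced.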

Row | Sequence | AmyQ secretion efficiency
1 | MKRMIVRMTLPLLIVCLAFSSFSASARCASE | 4.35
2 | MMKKLFHSTQGRQSFFSFFGVQPIHAKKQ | 7.5
3 | MKLAKRVSALTPSTTLAITAKMKEL | 6.79
4 | MRKRLFRVCFLAALIMAFTLPNSVYAQKP | 2.73
5 | MKKWIYVKKKKKKAGIGGFSVHAASS | 6.75
6 | MLKKKWMVKKKRRCKAAGGFSYNAFATEN | 7.54
7 | MLMLWNSLALCGLALTLAPCAQAAEP | 2.76
8 | MKRLLVSLRVWMVFLMNWVTPDRKTAAADED | 6.67
9 | MNKPTKGFSTLALAAGSTAAAAGGAGTIHAQQP | 8.05
10 | MKQFAITLSVLCALILLVPTLLVIPRRKKRHKKEAGASV | 5.51
11 | MPYLKRVLLLLVTGLFMSLFAVTATASFQTG | 2.53
12 | MKTPKGMLLSTAAGLLLSLTATSVSAHYV | 5.33
13 | MLKKIALTLCPAIVGSLLFFTAPASADEE | 3.58
14 | MKVPKTMLLSTAAGLLLSLTATSVSWHYV | 4.99
15 | MGLGKKLSVAVAASFMSLSISLPGVQPAEG | 4.8
16 | MYSAIIIAIIAAVIVIAALITFNVRNASPG | 7.59
17 | MMMWLIIAVSLAIAIVLFMYTKGEAKAAGM | 6.9
18 | MLTKRLLTIYIMLLGLILAWFPGAAQAEEK | 2.09
19 | MKRSISIFITCLLITLLTMGGMIASPRSAAGT | 2.42
20 | MKKAAAVLLSLGLVFGFSYGAGHVAEYKTK | 6.37
21 | MRKTIFAFLTGLMMFGTITAASKSPD | 6
22 | MKKQIITATTAVVGAASAQSI | 7.59
23 | MKRFILVLSFLSIIVKKRIQTNASPM | 7.76
24 | MKKGIIRFLLVSFVLFFALSTGITGVQCAPA | 6.36
25 | MRKKLKWLSFLLGFIILLFLFTFGFSNNDS | 5.5
26 | MKKKQVMLKRKKKKGLGLTALHSAPAAKAAPL | 8.05

Row | Sequence | AmyQ secretion efficiency
27 | MKKLLAAGIIGLLTVSIASPSFARRK | 6.83
28 | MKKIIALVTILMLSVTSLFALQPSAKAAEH | 2.46
29 | MKKVKRAFIICLSLILSVLAAPPSGAKAESV | 1.67
30 | MKRFLIGAGVAAVILFSITFSGWFIADHQTHSQEM | 5.28
31 | MKKAAAVLLSLGLVFVGFSYGAGHVAEAKTK | 1.71
32 | MKRIRIPMTLALGAALTIAPLSFASWEEN | 6.97
33 | MKKVLMAFIICLSLILSVLAAPPSGMKAESV | 1.84
34 | MKKCLLFLTTIALILSGSTNAFAKNT | 1.7
35 | MRKRKKKSMLTVMIASLFIFSSQALAVQY | 6.79
36 | MKKARRLSAAAAVGLFTFGGVQQASAKEL | 3.35
37 | MKSKWMSGLLLVAVGFSFTQVMVHADEE | 6.6
38 | MKRSSGKQLIGIMLLTFAPSAFAKQD | 3.5
39 | MKKRRVLMAFIICLSLILSVLAAPPSGAKAESV | 1.87
40 | MKKRKVLTGSVLSLGLLVSASPAFATSP | 1.37
41 | MKKLLAAGIIGLLTVSIASPQFAAEK | 6.75
42 | MKKWMITIAMLILAGIALFVFISPRKSHKT | 4.44
43 | MKKLRKKKKKGLLTVSIASPSFAAEK | 7.52
44 | MKVCQKSIVRFLVSLIIGTFVIRKKFMANAQSD | 6.59
45 | MKIRKILLSSALSFGMLKDKVPALAAGT | 6.36
46 | MKKTTTKYFMFGLVMGFSQFQPSTVFAADK | 3.56
47 | MMKKGLLAGALTATVLFGTCAVDVPKAEAASQ | 1.63
48 | MKSKWMSGLLLVAVGFSFTQVMVHAGTT | 5.78
49 | MKLAKRVSALTPSTTLAITSKAKEL | 8.31
50 | MHLIRAAGAVCLAVVLIAGCRITSIFFNEDQHQAEGENT | 6.96
51 | MQKKWRRRLIQFAVMLSVLSTFTYSASAVGV | 3.56
52 | MKKRTIQVMIMFTLLLTMAFSADAADS | 5

Row | Sequence | AmyQ secretion efficiency
53 | MGMKKKSRTGVASAALGLALVGGGTWAAFN | 5.34
54 | MRIFKKARKKRRKSFLIATVNVNTAHAAID | 6.58
55 | MKLSVKIAGVLTVAAAAMTAKMYNTAKGN | 6.07
56 | MRKNRLLLNILALFVLSLGLLSFMVTPVSAASK | 1.08
57 | MRKKRLLAGALTATVLFGTCAVDVPGIISPKTAEAASQ | 1.23
58 | MKRQCYWTYQSSRQLVLLPGKALGAVD | 8.11
59 | MMKKLFHSTLIVLLFFSFFGVSPIHAKKQ | 2.2
60 | MLKKIALTLCPAIVGSLLFFTAPNSAHVS | 6.42
61 | MKKWLIIAVSLAIAIVLFRRKKGRAKAAGM | 5.92
62 | MKLSVKIAGVLTVAAAAMTAKMYATEKGN | 4.74
63 | MNLRKTYSGRGYSLGMLVSAAPVLATSS | 6.74
64 | MKKSTRKYKILGALGTSYISADSS | 7.69
65 | MRPVFPLILSAVLFLSCFSTSVAITVTFGARQTEASASKR | 3.9
66 | MPINTFVMMCLAVTLVFGSMSFPTLTNSGGFKE | 7.23
67 | MKIRKILLSSALSFGMLKKRRKKALAAGT | 6.86
68 | MMKKGLLAGALTATVLFGTCKDAEAASQ | 1.66
69 | MLTKRLRKKKRRLLGLIAWFPGAAQAEEK | 7.67
70 | MFNRLFRVCFLAALIMAFTLPNSVVTSVYAQKP | 2.32
71 | MPYLKRVLLLLVTGLFMSLFAVTATASYQTG | 1.77
72 | MLKRTSFVSSLFIFMAVLLIILTLPSGQAHAQSA | 1.9
73 | MKKQIITATTAVVLGSTLFAGASSAQSI | 2.25
74 | MMIKQCVICLSLLVFGTRRKAHAEET | 7.59
75 | MKLSVKIAGVLTVAAAAMVAFTIAFFFTAKMYATAKGN | 2.45
76 | MKRFILVLSFLSIIVKRRRRRTNASPM | 7.31
77 | MKRKRFLIGAGVAAVILSGWFIADHQTHSQEM | 5.04
78 | MKRLFMKASLVLFAVVFVFAVKGAPAKAAKR | 3.29

Row | Sequence | AmyQ secretion efficiency
79 | MTMLRKIIGWILLLCIIPLFAFTVIHSGKEV | 6.94
80 | MFKKHTRKRKIIFLLASAVLAKPIEAHTV | 7.04
81 | MKRLLSSLAISALSLGLLVSAPTASFAAES | 2.75
82 | MPIKKKVMMCLAVMLVFLMMSFPTLTNSGGFKE | 3.23
83 | MNKKYFVLIVCIIFTSALFPTFSSVTRAQG | 1.05
84 | MGLGKKLSVAVAASFMSLSISLDEEDDEVQAAEG | 1.62
85 | MKLRKVLTGSVLSLVSASPAFATSP | 3.59
86 | MIAYFGKCLLLVTIMFLGVLFTAVVVIAGMQQANHG | 5.06
87 | MKNMSCKLRRRRKRFFSFLTIGPLAHAQNS | 7.37
88 | MKKLLAAGIIGLLTVSIASPWFAAEK | 7.98
89 | MNLRKILLSSALSLVSAAPVLATSS | 3.92
90 | MYKKFVPFRRRKKRFFVSFEMMENPHALDY | 7.64
91 | MTKKYWQSPYYCRLLISGWLAPAASASAQTT | 8.15
92 | MRIFKKAVFVIMISFLIATVNVNTAHIAID | 6.89
93 | MKQGKFSVKKKRKRMLTLVVAPKEKAEAASS | 5.83
94 | MLLGKILLSSALSLGMLVSAAPVLATSS | 6.9
95 | MRSYIKGTGRCKLGLILFVPTALADNS | 6.59
96 | MKKVLMAFIICLSLILSVLAAPPSGQKAESV | 7.08
97 | MKKAFILSAAAAVGLFTFLILSFTGGVQQASAKEL | 3.78
98 | MKKSAAVLLSLGLVSGFSYGAGHVAEAKTK | 2.59
99 | MLKKVKRRRFILVGSTLGAFSFSSDASAKHV | 7.34
100 | MRKNRILALFVLSLGLLKRKRKKVSAASK | 6.69
101 | MMIKQNMSSNSSCVICLSLLVFGTTAAHAEET | 4.39
102 | MNMLKRLSMLTVMIASVFIFSSHALAAQY | 1.63
103 | MLCVMMLLFSAIAVSFPVSAQAKDQ | 5.09
104 | MKKRLIAPMLLSAASLAFFAMSGSAQDAAY | 6.76

Row | Sequence | AmyQ secretion efficiency
105 | MLKKKWMVGLLAGCLAAGDDEYNAFATEN | 4.98
106 | MKKLIMMTGLLFGLTSPAFAAEK | 2.43
107 | MKKCKRKKKKIALILSLSTNAFAKNT | 6.9
108 | MKKWIYVVLVLSIAGIGGPSVHAASS | 2.74
109 | MKWMCSICCAAVLLAGGARQAEAV | 2.15
110 | MKRTWNVCLTALLSVLLVAGSVTFHAEAKKP | 2.82
111 | MLKKKWMVGLLAGCLAAGFFGYNAFATEN | 6.85
112 | MKRFSTAYLLLGILCSAAVFLIKRPSRALGAEV | 6.46
113 | MLTKRQLTIYIMLLGLIAWFPGAAQAEEK | 2.9
114 | MRKKRVRKCKKAASLTLGSLLPAGYASAKED | 7.62
115 | MRRKKRKVVGFLSVLGLAAVFPLTAQAEKA | 2.12
116 | MMITWNVCLTALLSVLLVAGSVPFHAEAKKP | 3.89
117 | MKNMSCKLVVSVTLFFSFLTIGPLAHLQNS | 6
118 | MLKKIALTLCPAIVGSLLFFTAPRSAHVS | 5.22
119 | MMIKQCVICLSLLVFGTTAAHAARR | 5.39
120 | MKLRKVLTGSVLSLGLLVSASPAFATSR | 1.56
121 | MKKIMSAFVGMVLLTIFCFSPQASARRR | 6.47
122 | MTKKAWFLPLVCVLLIVIALIFSFASGWLAPAASASAQTT | 2.12
123 | MRNLTKTSLLLAGLCTAAQMVFVTHCSAEES | 2.79
124 | MGGGSFSIVFLILLLMLTLVVAPKEKAEAASS | 1.53
125 | MKRTWNVCLTALLSVLLVAPFHAEAKKP | 4.3
126 | MKLKSKLLLSCLALSTVFVATTICNAPTH | 5.85
127 | MRKSLITLGLASVISIIVFLIAFTSKTASAETL | 2.48
